Results reported in the supplement of paper PMC10724198.
± gives the standard deviation of the averaged measurements.

The sequences below were run on Saccharomyces cerevisiae (assay: protein stability index of tFT-peptide fusion (C-terminal peptide) (PSI (0-1 scale)); higher = more stable (slower turnover)). Settings: genetic background: wild type; temperature: 30 C.
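Also: PSI is a weighted mean of sequencing reads over stability bins, variants kept only with over 10 reads, mCherry proximal and sfGFP distal, peptide attached via GGGS linker.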

Row | Sequence | protein stability index
1 | RFAFLPPPPLPP | 0.636 ± 0.011
2 | RFCQSHTSVSSF | 0.652 ± 0.039
3 | RFGGGAVWGLGG | 0.666 ± 0.02
4 | RFGPPPPPPSTL | 0.71 ± 0.035
5 | RFGRGAVGGLGG | 0.668 ± 0.02
6 | RFGSGYLRRYTH | 0.776 ± 0.011
7 | RFIGVVTRLRRC | 0.643 ± 0.042
8 | RFKLEKIKHKKK | 0.755 ± 0.054
9 | RFPRSSPPHRSL | 0.717 ± 0.023
10 | RFRSMTGVIVSE | 0.6772 ± 0.002
11 | RFSPRSLIFFPS | 0.612 ± 0.03
12 | RFTPLSFCTDRV | 0.658 ± 0.025
13 | RGARTGGGRDGS | 0.705 ± 0.025
14 | RGEGGRALGVGR | 0.688 ± 0.015
15 | RGEGGRGRTVEG | 0.631 ± 0.077
16 | RGEVQPRRDPGA | 0.662 ± 0.0095
17 | RGFGSGTVGVQS | 0.616 ± 0.034
18 | RGFMLGFVSRFS | 0.625 ± 0.039
19 | RGFPPPPLLSSR | 0.74 ± 0.059
20 | RGGGEWGKEDSQ | 0.705 ± 0.019
21 | RGGGGRGWGSRG | 0.67 ± 0.027
22 | RGGGGVLEVLLG | 0.5347 ± 0.0046
23 | RGGGQVLGVRVG | 0.667 ± 0.089
24 | RGGGSWWCGGDQ | 0.76 ± 0.024
25 | RGGGVGRGLGGK | 0.605 ± 0.066
26 | RGGLRRGSGREG | 0.684 ± 0.068

Row | Sequence | protein stability index
27 | RGGPLSSGVVLV | 0.714 ± 0.049
28 | RGGRGAVRWLRG | 0.66791 ± 7.1e-07
29 | RGGVAGQPDAGR | 0.666 ± 0.014
30 | RGKIKKTRKDNK | 0.598 ± 0.021
31 | RGKTGLTRYIGV | 0.709 ± 0.074
32 | RGLGGGAECGRW | 0.785 ± 0.12
33 | RGLGVFGVVSPA | 0.7 ± 0.057
34 | RGLRIFMSRAWH | 0.75 ± 0.043
35 | RGLVLWVVSGRG | 0.6155 ± 0.0045
36 | RGLVSPPPPLPS | 0.681 ± 0.024
37 | RGLYPLKVDCQW | 0.753 ± 0.036
38 | RGPRGGFHFFRA | 0.6657 ± 0.003
39 | RGREGSSVAVMV | 0.646 ± 0.04
40 | RGRFGYTSSTLA | 0.686 ± 0.041
41 | RGRGRVFVFGNW | 0.726 ± 0.033
42 | RGRLRFGNTTGI | 0.691 ± 0.035
43 | RGRRPRPGGTGT | 0.641 ± 0.016
44 | RGRRRGGQQIAE | 0.666 ± 0.007
45 | RGRSGASSGWRG | 0.659 ± 0.044
46 | RGSQLFWSRGYL | 0.707 ± 0.035
47 | RGSSPRAVTVWM | 0.804 ± 0.075
48 | RGTDSRERIKRR | 0.721 ± 0.06
49 | RGTWSLFYAFLD | 0.578 ± 0.035
50 | RGVGAGGLEGIG | 0.535 ± 0.011
51 | RGVGCLIITHSL | 0.608 ± 0.073
52 | RGVGGVLEVLLG | 0.5256 ± 0.0032

Row | Sequence | protein stability index
53 | RGVGWGGLEGIG | 0.5235 ± 0.0014
54 | RGVGWVLEVLLG | 0.518 ± 0.0087
55 | RGVPPPCPLLAA | 0.599 ± 0.077
56 | RGWAGGRQGCGG | 0.746 ± 0.055
57 | RGWVEWGVRASE | 0.749 ± 0.06
58 | RGYEGSEVQVGV | 0.677 ± 0.043
59 | RGYGRGWRGVGA | 0.747 ± 0.18
60 | RGYLAKELGVKS | 0.652 ± 0.02
61 | RHAFGSSHVRFF | 0.679 ± 0.024
62 | RHLVSPSTRAIS | 0.77 ± 0.15
63 | RHMLSDFIDACS | 0.72 ± 0.12
64 | RHPPPRSSPPDL | 0.639 ± 0.095
65 | RHPVFSSTVSYI | 0.738 ± 0.03
66 | RHSREPRASMTR | 0.641 ± 0.072
67 | RHTFMCQRRVGL | 0.78 ± 0.084
68 | RHVSHASRLTPG | 0.602 ± 0.11
69 | RHYGVTSLISLQ | 0.674 ± 0.01
70 | RIAPSLPPSSFL | 0.688 ± 0.0095
71 | RIATRCEGPGHK | 0.663 ± 0.015
72 | RIDLFCVRSSLV | 0.6573 ± 0.0054
73 | RIGEHGWLTGYI | 0.736 ± 0.012
74 | RILVYRKENRKN | 0.678 ± 0.052
75 | RINKKRETNQGK | 0.685 ± 0.05
76 | RIQMSGHTNLVG | 0.686 ± 0.024
77 | RISPRVSARLCI | 0.616 ± 0.007
78 | RITYIANNVMLF | 0.652 ± 0.028

Row | Sequence | protein stability index
79 | RIYDNKNTGIYH | 0.707 ± 0.022
80 | RKCMSNSKNNNE | 0.669 ± 0.018
81 | RKEAVTQTQKNT | 0.672 ± 0.051
82 | RKEQRTERKSQK | 0.721 ± 0.066
83 | RKGERRKKKKRR | 0.677 ± 0.051
84 | RKGKKNKKPKKQ | 0.612 ± 0.02
85 | RKKEKKERKERK | 0.66 ± 0.069
86 | RKKENKIANRKI | 0.6893 ± 0.00094
87 | RKKIIRDKLNTS | 0.709 ± 0.051
88 | RKKKKKKRGKNR | 0.621 ± 0.043
89 | RKKREKNKKRKE | 0.695 ± 0.049
90 | RKKYPLMINGKR | 0.711 ± 0.0073
91 | RKMNEEKEIRRQ | 0.6569 ± 0.0065
92 | RKNQNAWMPALQ | 0.702 ± 0.1
93 | RKRWQWGRVRGV | 0.617 ± 0.11
94 | RKSCKRNERIRK | 0.669 ± 0.035
95 | RKSIGTAYRMPR | 0.755 ± 0.081
96 | RKSSLVARTGMI | 0.623 ± 0.071
97 | RKTEGGGEGLAV | 0.728 ± 0.035
98 | RLARAPTQPRLS | 0.67 ± 0.062
99 | RLASGGSAFINL | 0.78 ± 0.2
100 | RLAVLSLPPHPT | 0.6685 ± 0.0037
101 | RLCSPVSVLLPP | 0.713 ± 0.047
